From US20030049732

T1: Nod1
T1 chain: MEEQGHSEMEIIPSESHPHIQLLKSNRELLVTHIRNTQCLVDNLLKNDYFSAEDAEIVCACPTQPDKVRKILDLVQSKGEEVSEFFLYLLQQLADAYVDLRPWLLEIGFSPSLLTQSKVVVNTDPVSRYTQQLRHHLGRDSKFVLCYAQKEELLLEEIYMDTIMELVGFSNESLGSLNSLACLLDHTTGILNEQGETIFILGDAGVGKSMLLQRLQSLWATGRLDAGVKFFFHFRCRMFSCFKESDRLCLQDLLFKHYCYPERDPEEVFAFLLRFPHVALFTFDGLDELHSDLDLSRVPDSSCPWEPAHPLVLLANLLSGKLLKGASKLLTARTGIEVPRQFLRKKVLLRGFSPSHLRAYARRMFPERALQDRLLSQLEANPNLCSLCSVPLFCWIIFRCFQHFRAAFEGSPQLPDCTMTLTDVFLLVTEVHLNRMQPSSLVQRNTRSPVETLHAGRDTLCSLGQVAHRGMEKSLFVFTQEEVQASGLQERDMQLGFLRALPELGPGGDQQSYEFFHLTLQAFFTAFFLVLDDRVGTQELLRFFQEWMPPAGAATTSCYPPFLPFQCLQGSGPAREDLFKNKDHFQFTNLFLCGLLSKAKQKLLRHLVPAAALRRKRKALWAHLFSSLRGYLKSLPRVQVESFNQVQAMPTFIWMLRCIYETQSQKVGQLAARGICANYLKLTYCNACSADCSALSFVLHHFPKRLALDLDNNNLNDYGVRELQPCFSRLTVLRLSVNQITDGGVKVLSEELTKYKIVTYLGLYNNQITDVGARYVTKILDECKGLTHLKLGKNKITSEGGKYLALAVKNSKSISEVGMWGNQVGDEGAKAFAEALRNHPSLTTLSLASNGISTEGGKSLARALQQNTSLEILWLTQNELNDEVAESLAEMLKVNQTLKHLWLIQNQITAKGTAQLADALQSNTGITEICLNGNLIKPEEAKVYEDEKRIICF


Target: T1, Nod1

Row | Protein | proteolytic processing of procaspase-8 (SDS-PAGE, anti-HA immunoblot of 293T lysates) | proteolytic processing of procaspase-9 (SDS-PAGE, anti-Flag immunoblot of 293T lysates)
1 | Caspase-8 (protein) MDFSRNLYDIGEQLDSEDLASLKFLSLDYIPQRKQEPIKDALMLFQRLQEKRMLEESNLSFLKELLFRINRLDLLITYLNTRKEEMERELQTPGRAQISAYRVMLYQISEEVSRSELRSFKFLLQEEISKCKLDDDMNLLDIFIEMEKRVILGEGKLDILKRVCAQINKSLLKIINDYEEFSKERSSSLEGSPDEFSNGEELCGVMTISDSPREQDSESQTLDKVYQMKSKPRGYCLIINNHNFAKAREKVPKLHSIRDRNGTHLDAGALTTTFEELHFEIKPHDDCTVEQIYEILKIYQLMDHSNMDCFICCILSHGDKGIIYGTDGQEAPIYELTSQFTGLKCPSLAGKPKVFFIQACQGDNYQKGIPVETDSEEQPYLEMDLSSPQTRYIPDEADFLLGMATVNNCVSYRNPAEGTWYIQSLCQSLRERCPRGDDILTILTEVNYEVSNKDDKKNMGKQMPQPTFTLRKKLVFPSD | Expression of Nod1 includes the proteolytic activation of procaspase-9, but not that of procaspase-8 | –
2 | Caspase-9 (protein) MDEADRRLLRRCRLRLVEELQVDQLWDALLSRELFRPHMIEDIQRAGSGSRRDQARQLIIDLETRGSQALPLFISCLEDTGQDMLASFLRTNRQAAKLSKPTLENLTPVVLRPEIRKPEVLRPETPRPVDIGSGGFGDVGALESLRGNADLAYILSMEPCGHCLIINNVNFCRESGLRTRTGSNIDCEKLRRRFSSLHFMVEVKGDLTAKKMVLALLELAQQDHGALDCCVVVILSHGCQASHLQFPGAVYGTDGCPVSVEKIVNIFNGTSCPSLGGKPKLFFIQACGGEQKDHGFEVASTSPEDESPGSNPEPDATPFQEGLRTFDQLDAISSLPTPSDIFVSYSTFPGFVSWRDPKSGSWYVETLDDIFEQWAHSEDLQSLLLRVANAVSVKGIYKQMPGCFNFLRKKLFFKTS | – | Expression of Nod1 includes the proteolytic activation of procaspase-9, but not that of procaspase-8
